Where a chain is given by its changes, count along the chain named.
T1: papain (UniProt P00784 134-345)
T1 sequence (looked up): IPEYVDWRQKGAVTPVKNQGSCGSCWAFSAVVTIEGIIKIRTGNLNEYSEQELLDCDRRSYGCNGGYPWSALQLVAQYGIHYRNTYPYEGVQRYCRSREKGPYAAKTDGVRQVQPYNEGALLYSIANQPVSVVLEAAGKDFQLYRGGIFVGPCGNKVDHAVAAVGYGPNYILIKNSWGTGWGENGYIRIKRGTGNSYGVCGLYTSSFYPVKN

B1: PHYTC57 (designed binder)
chain: MAALLGGVRAVPGNENSLEIEELARFAVDEHNKKENALLEFVRVVKAKEQVVAGTMYYLTLEAKDGGKKKLYEAKVWVKPWETFKELQEFKPVGDARGSHHHHHH
notes: also called consensus phytocystatin; consensus cystatin
B2: OSA-IΔD86 (other)
chain: MSSDGGPVLGGVEPVGNENDLHLVDLARFAVTEHNKKANSLLEFEKLVSVKQQVVAGTLYYFTIEVKEGDAKKLYEAKVWEKPWMFKELQEFKPVDASANARGSHHHHHH
notes: also called OSA1ΔD86; modified oryzacystatin lacking residue Asp86
B3: CEWC (other, chicken)
chain: SEDRSRLLGAPVPVDENDEGLQRALQFAMAEYNRASNDKYSSRVVRVISAKRQLVSGIKYILQVEIGRTTCPKSSGDLQSCEFHDEPEMAKYTTCTFVVYSIPWLNQIKLLESKCQRGSHHHHHH
notes: also called chicken egg white cystatin
B4: Ad-ySUMO 1 (designed binder)
chain: NSLEIEELARFAVDEHNKKENALLEFVRVVKAKEQWDLTGNVDTTMYYLTLEAKDGGKKKLYEAKVWVKWDDWGERFWNFKELQEFKPVGDA
notes: also called clone 1
B5: Ad-ySUMO 2 (designed binder)
chain: NSLEIEELARFAVDEHNKKENALLEFVRVVKAKEQIDLTNSFASTMYYLTLEAKDGGKKKLYEAKVWVKDINQYWHSMNFKELQEFKPVGDA
notes: also called clone 2
B6: Ad-ySUMO 3 (designed binder)
chain: NSLEIEELARFAVDEHNKKENALLEFVRVVKAKEQINLMMVSPMTMYYLTLEAKDGGKKKLYEAKVWVKGIQQNPSHANFKELQEFKPVGDA
notes: also called clone 3
B7: Ad-ySUMO 4 (designed binder)
chain: NSLEIEELARFAVDEHNKKENALLEFVRVVKAKEQIDLTHSLNYTMYYLTLEAKDGGKKKLYEAKVWVKGLTNEIQKMNFKELQEFKPVGDA
notes: also called clone 4
B8: Ad-ySUMO 5 (designed binder)
chain: B7 chain
notes: also called clone 5
B9: Ad-ySUMO 6 (designed binder)
chain: NSLEIEELARFAVDEHNKKENALLEFVRVVKAKEQIDLTEWQDRTMYYLTLEAKDGGKKKLYEAKVWVKPEPIHSHHSNFKELQEFKPVGDA
notes: also called clone 6
B10: Ad-ySUMO 7 (designed binder)
chain: NSLEIEELARFAVDEHNKKENALLEFVRVVKAKEQWVDMDYYWRTMYYLTLEAKDGGKKKLYEAKVWVKMDEIWAEYANFKELQEFKPVGDA
notes: also called clone 7
B11: Ad-ySUMO 8 (designed binder)
chain: NSLEIEELARFAVDEHNKKENALLEFVRVVKAKEQIDLTQTEIVTMYYLTLEAKDGGKKKLYEAKVWVKEPGIIPIVHNFKELQEFKPVGDA
notes: also called clone 8
B12: Ad-ySUMO 9 (designed binder)
chain: NSLEIEELARFAVDEHNKKENALLEFVRVVKAKEQIDLTDVWIDTMYYLTLEAKDGGKKKLYEAKVWVKGLMTQTNSMNFKELQEFKPVGDA
notes: also called clone 9
B13: Ad-ySUMO 12 (designed binder)
chain: NSLEIEELARFAVDEHNKKENALLEFVRVVKAKEQWYERSENWDTMYYLTLEAKDGGKKKLYEAKVWVKRDYGFTLVPNFKELQEFKPVGDA
notes: also called clone 12
B14: Ad-ySUMO 13 (designed binder)
chain: NSLEIEELARFAVDEHNKKENALLEFVRVVKAKEQWDLTTPINITMYYLTLEAKDGGKKKLYEAKVWVKYEDYQTPMYNFKELQEFKPVGDA
notes: also called clone 13
B15: Ad-ySUMO 14 (designed binder)
chain: NSLEIEELARFAVDEHNKKENALLEFVRVVKAKEQWFDDEYDWITMYYLTLEAKDGGKKKLYEAKVWVKDYAATDLYWNFKELQEFKPVGDA
notes: also called clone 14
B16: Ad-ySUMO 17 (designed binder)
chain: NSLEIEELARFAVDEHNKKENALLEFVRVVKAKEQWYLLDVMDDTMYYLTLEAKDGGKKKLYEAKVWVKHDRRYKQAENFKELQEFKPVGDA
notes: also called clone 17
B17: Ad-ySUMO 18 (designed binder)
chain: NSLEIEELARFAVDEHNKKENALLEFVRVVKAKEQWIDRGQYWDTMYYLTLEAKDGGKKKLYEAKVWVKIHNGYTIMDNFKELQEFKPVGDA
notes: also called clone 18
B18: Ad-ySUMO 19 (designed binder)
chain: NSLEIEELARFAVDEHNKKENALLEFVRVVKAKEQWSEADNDWHTMYYLTLEAKDGGKKKLYEAKVWVKLDLETWQHFNFKELQEFKPVGDA
notes: also called clone 19
B19: Ad-ySUMO 23 (designed binder)
chain: NSLEIEELARFAVDEHNKKENALLEFVRVVKAKEQIDLTQPHDSTMYYLTLEAKDGGKKKLYEAKVWVKPHDELNWNMNFKELQEFKPVGDA
notes: also called clone 23
B20: Ad-ySUMO 15 (designed binder)
chain: B19 chain with P70Y, H71E, D72E, E73D, L74E, N75Y, N77R
notes: also called clone 15; Yeast Sumo Adhiron 15
B21: Ad-ySUMO 24 (designed binder)
chain: NSLEIEELARFAVDEHNKKENALLEFVRVVKAKEQWEDFQTHWETMYYLTLEAKDGGKKKLYEAKVWVKDVGQLLSGINFKELQEFKPVGDA
notes: also called clone 24
B22: Ad-ySUMO 10 (designed binder)
chain: NSLEIEELARFAVDEHNKKENALLEFVRVVKAKEQIIIHENDADTMYYLTLEAKDGGKKKLYEAKVWVKGIMDGLNKYNFKELQEFKPVGDA
notes: also called clone 10
B23: Ad-ySUMO 20 (designed binder)
chain: NSLEIEELARFAVDEHNKKENALLEFVRVVKAKEQIDLTGQWLFTMYYLTLEAKDGGKKKLYEAKVWVKPLWQYDAQYNFKELQEFKPVGDA
notes: also called clone 20
B24: Ad-ySUMO 22 (designed binder)
chain: B19 chain with P41S, H42F, S44M, H71I, E73S, L74N, N75F, W76T, N77G, M78T
notes: also called clone 22

What was measured:
papain [1] = target: T1, papain; experiment: cell-based or functional assay
papain [2] = target: T1, papain; experiment: SPR (BIACORE 3000), cystatin on NTA chip via His tag, papain as analyte, 1:1 Langmuir fit
[3] = target: T2, yeast Small Ubiquitin-like Modifier protein (SUMO) (yeast, UniProt Q12306 1-98 = SUMO); experiment: phage ELISA on biotinylated ySUMO
T2 construct: also called ySUMO; yeast SUMO
T2 sequence (Q12306 1-98 limits assumed): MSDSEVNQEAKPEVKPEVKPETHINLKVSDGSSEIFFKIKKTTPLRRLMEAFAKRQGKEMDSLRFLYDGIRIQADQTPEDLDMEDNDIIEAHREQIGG

human SUMO1 = target: T3, human SUMO1 (human, UniProt P63165 1-97); experiment: ELISA and Western blot with biotinylated Adhiron
T3 construct: also called hSUMO1
T3 sequence (P63165 1-97 limits assumed): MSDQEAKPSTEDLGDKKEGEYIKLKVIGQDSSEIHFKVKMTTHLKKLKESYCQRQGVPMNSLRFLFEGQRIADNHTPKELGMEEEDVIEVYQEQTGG

[4] = target: T2, yeast Small Ubiquitin-like Modifier …; experiment: BioLayer Interferometry (BLitz), biotinylated Adhiron on streptavidin biosensor, global fit

Binder | binding result [3] | further results
B1 |  | IC50, papain inhibition assay with pGlu-Phe-Leu-p-nitroanilide (papain [1]): 4.6e-08 M; Ka (papain [2]): 1.6e+11 M⁻¹; Kd (papain [2]): 0.0063 nM; kon (papain [2]): 350000 M⁻¹ s⁻¹
B2 |  | IC50, papain inhibition assay with pGlu-Phe-Leu-p-nitroanilide (papain [1]): 1.8e-07 M; Ka (papain [2]): 2.1e+08 M⁻¹
B3 |  | Ka (papain [2]): 2.6e+09 M⁻¹; Kd (papain [2]): 0.39 nM; kon (papain [2]): 1.3e+06 M⁻¹ s⁻¹
B4 | binds | 
B5 | binds | 
B6 | binds | 
B7 | binds | 
B8 | binds | 
B9 | binds | 
B10 | binds | 
B11 | binds | 
B12 | binds | 
B13 | binds | 
B14 | binds | 
B15 | binds | 
B16 | binds | 
B17 | binds | 
B18 | binds | 
B19 | binds | 
B20 |  | binding result (human SUMO1): no binding; Kd [4]: 2.4 nM
B21 | binds | 
B22 |  | binding result (human SUMO1): no binding; Kd [4]: 11.5 nM
B23 |  | binding result (human SUMO1): no binding; Kd [4]: 14.2 nM
B24 |  | binding result (human SUMO1): no binding; Kd [4]: 9 nM

— US20180245067A1 (UNIVERSITY OF LEEDS, published 2018)
